B1: Patritumab-eribulin-D2 (antibody, human IgG1, kappa, V domains shown)
VH: QVQLQQWGAGLLKPSETLSLTCAVYGGSFSGYYWSWIRQPPGKGLEWIGEINHSGSTNYNPSLKSRVTISVETSKNQFSLKLSSVTAADTAVYYCARDKWTWYFDLWGRGTLVTVSS
VL: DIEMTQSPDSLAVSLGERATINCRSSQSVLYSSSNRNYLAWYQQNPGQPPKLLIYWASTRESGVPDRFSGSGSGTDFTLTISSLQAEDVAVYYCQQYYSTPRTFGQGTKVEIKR
modifications: MC-GGFG-eribulin (compound III-1) conjugated to cysteine sulfhydryls freed by TCEP reduction of the antibody's disulfide bonds; positions not given; average DAR 2.6 per antibody
notes: also called patritumab-eribulin conjugate with a DAR of 2.6
B2: Patritumab (antibody, human IgG1, kappa, V domains shown)
VH: B1 VH
VL: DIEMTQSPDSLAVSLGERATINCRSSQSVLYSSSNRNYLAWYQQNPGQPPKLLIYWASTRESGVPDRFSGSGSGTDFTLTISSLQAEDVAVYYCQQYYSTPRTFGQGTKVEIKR
notes: Naked antibody expressed in Expi-CHO cells and purified by Protein A; also called fully human anti-HER3 monoclonal antibody
B3: Patritumab-DDDXd-D8 (antibody, human IgG1, kappa, V domains shown)
VH: B1 VH
VL: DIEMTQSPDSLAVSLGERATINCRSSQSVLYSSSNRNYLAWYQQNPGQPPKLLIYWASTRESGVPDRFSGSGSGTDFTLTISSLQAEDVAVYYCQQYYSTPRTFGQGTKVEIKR
modifications: MC-GGFG-DDDXd (deuterated MC-GGFG-DXd) conjugated to cysteine sulfhydryls freed by TCEP reduction of the antibody's disulfide bonds; positions not given; average DAR 7.9 per antibody
notes: also called patritumab-DDDXd conjugate with a DAR of 7.9; patritumab-DDDX-D8
B4: Patritumab-eribulin-D4 (antibody, human IgG1, kappa, V domains shown)
VH: B1 VH
VL: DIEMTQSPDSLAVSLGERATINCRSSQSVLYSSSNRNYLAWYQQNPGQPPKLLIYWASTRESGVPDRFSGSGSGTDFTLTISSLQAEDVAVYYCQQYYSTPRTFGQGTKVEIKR
modifications: MC-GGFG-eribulin (compound III-1) conjugated to cysteine sulfhydryls freed by TCEP reduction of the antibody's disulfide bonds; positions not given; average DAR 4.0-4.2 per antibody
notes: also called patritumab-eribulin conjugate with DAR of 4.0-4.2
B5: Patritumab-eribulin-D8 (antibody, human IgG1, kappa, V domains shown)
VH: B1 VH
VL: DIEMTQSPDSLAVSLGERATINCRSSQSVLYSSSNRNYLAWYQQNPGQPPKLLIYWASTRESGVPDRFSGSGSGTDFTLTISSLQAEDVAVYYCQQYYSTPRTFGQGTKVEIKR
modifications: MC-GGFG-eribulin (compound III-1) conjugated to cysteine sulfhydryls freed by TCEP reduction of the antibody's disulfide bonds; positions not given; average DAR 7.6 per antibody
notes: also called patritumab-eribulin conjugate with a DAR of 7.6

target: T1, HER3 (human epidermal growth factor receptor 3) (human, UniProt P21860 20-1342); assay: cell-based or functional assay

Point of comparison: B1, “Endocytosis EC50 (nM), BT474 cells, pHrodo Green-labelled anti-human IgG Fc, FACS” value 1.07 nM. Against it:
- B2 — lower, 0.821 nM
- B3 — lower, 0.859 nM
- B4 — lower, 0.962 nM
- B5 — lower, 0.931 nM

Point of comparison: B3, “Endocytosis EC50 (nM), MCF-7 cells, pHrodo Green-labelled anti-human IgG Fc, FACS” value 0.869 nM. Against it:
- B1 — lower, 0.58 nM
- B2 — lower, 0.509 nM
- B4 — lower, 0.797 nM
- B5 — higher, 1.25 nM

Point of comparison: B3, “Endocytosis EC50 (nM), NCI-N87 cells, pHrodo Green-labelled anti-human IgG Fc, FACS” value 56.8 nM. Against it:
- B1 — lower, 4.5 nM
- B4 — lower, 4.72 nM
- B5 — lower, 9.46 nM

target: T1, HER3 (human epidermal growth factor …); assay: FACS (MFI) on BT474 cells, high HER3 expression; anti-human IgG-Fc-PE secondary
Protocol: (§1) The cells were incubated at 4° C. for 60 min and centrifuged at 1000 rpm for 5 min. […] The cells were washed 3 times with pre-cooled PBS (pH 7.4) and resuspended in 100 μL of PBS (pH 7.4), and then the fluorescence signals were analyzed and detected using a flow cytometer (Sartorius, iQUE). […] Data were analyzed using GraphPad Prism5.

Point of comparison: B2, EC50 3.02 nM. Against it:
- B1 — within 1.5-fold, 3.05 nM
- B3 — within 1.5-fold, 2.68 nM
- B4 — within 1.5-fold, 2.78 nM
- B5 — within 1.5-fold, 2.85 nM

target: T1, HER3 (human epidermal growth factor …); assay: FACS (MFI) on MCF-7 cells, high HER3 expression; anti-human IgG-Fc-PE secondary
Protocol: as §1

Point of comparison: B3, EC50 0.77 nM. Against it:
- B1 — within 1.5-fold, 0.855 nM
- B2 — within 1.5-fold, 0.807 nM
- B4 — within 1.5-fold, 0.932 nM
- B5 — within 1.5-fold, 1.02 nM

target: T1, HER3 (human epidermal growth factor …); assay: FACS (MFI) on HCC1569 cells, high HER3 expression; anti-human IgG-Fc-PE secondary
Protocol: as §1

Point of comparison: B5, EC50 1.49 nM. Against it:
- B1 — within 1.5-fold, 1.42 nM
- B3 — within 1.5-fold, 1.16 nM
- B4 — the same, 1.49 nM

target: T1, HER3 (human epidermal growth factor …); assay: FACS (MFI) on JIMT-1 cells, medium HER3 expression; anti-human IgG-Fc-PE secondary
Protocol: as §1

Point of comparison: B5, EC50 1.73 nM. Against it:
- B1 — within 1.5-fold, 1.59 nM
- B2 — within 1.5-fold, 1.51 nM
- B3 — within 1.5-fold, 1.3 nM
- B4 — 1.7-fold lower, 1.04 nM

target: T1, HER3 (human epidermal growth factor …); assay: FACS (MFI) on MDA-MB-468 cells, medium HER3 expression; anti-human IgG-Fc-PE secondary
Protocol: as §1

Point of comparison: B1, EC50 1.56 nM. Against it:
- B2 — within 1.5-fold, 1.3 nM
- B3 — within 1.5-fold, 1.7 nM
- B4 — within 1.5-fold, 1.67 nM
- B5 — 2.1-fold higher, 3.31 nM

target: T1, HER3 (human epidermal growth factor …); assay: FACS (MFI) on SW620 cells, low HER3 expression; anti-human IgG-Fc-PE secondary
Protocol: as §1

Point of comparison: B3, EC50 1.37 nM. Against it:
- B1 — within 1.5-fold, 1.89 nM
- B2 — within 1.5-fold, 1.47 nM
- B4 — within 1.5-fold, 1.28 nM
- B5 — within 1.5-fold, 1.74 nM

Reference: patent US20250018052A1 (CHIA TAI TIANQING PHARMACEUTICAL GROUP, published 2025)
